Data taken from paper PMC8437459.

Biological target: T1, MgaSpn (Streptococcus pneumoniae D39 (JH1900)) (UniProt A0A0H2ZN44)
T1 sequence: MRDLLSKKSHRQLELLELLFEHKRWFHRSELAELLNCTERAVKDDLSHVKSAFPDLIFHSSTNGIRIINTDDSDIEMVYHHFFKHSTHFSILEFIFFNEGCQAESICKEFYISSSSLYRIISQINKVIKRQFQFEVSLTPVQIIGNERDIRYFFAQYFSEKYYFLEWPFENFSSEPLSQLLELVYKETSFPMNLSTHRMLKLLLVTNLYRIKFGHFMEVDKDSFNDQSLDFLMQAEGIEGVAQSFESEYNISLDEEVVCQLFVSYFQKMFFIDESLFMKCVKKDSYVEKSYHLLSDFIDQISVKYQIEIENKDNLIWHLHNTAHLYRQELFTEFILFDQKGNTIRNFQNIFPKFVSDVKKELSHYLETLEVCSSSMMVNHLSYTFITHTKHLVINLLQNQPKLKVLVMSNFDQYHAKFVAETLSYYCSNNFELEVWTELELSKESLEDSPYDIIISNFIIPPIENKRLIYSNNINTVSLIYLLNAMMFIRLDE
Assay: EMSA

“TACACATCTGCTTCTAAAATATTGTTAGAAAACGATTTGACTGTCCTGATCAATTTGTCATGTTCTTATTTCATTTTACTATATTTTTGGTTCGCGGGAAGTCTACTAAGATACTTAAAGATGCAGATAGTGAAAAAAGGTGTAGACATTACCGTAAAAAAGTGATATAATCGTAAGATGTTCAATGTATAGGTGTTAATCATGAGTAGACGTTTTAA (double strand) [Pcps probe (EMSA)]” was tested, and the binding was “binds”.
